Results: patent publication US20100215619A1

Columns and labels:
HLA-DRB4*0101 (human) = experiment: competition binding; conditions: modification not given
HLA-DRB1*0101 (human) = experiment: competition binding; conditions: modification not given

IC50 (HLA-DRB4*0101 (human)) [µM] | IC50 (HLA-DRB1*0101 (human)) [µM] | Binder
90 |  | VGYVDDTQFVRFDSD [p6]
 | 0.456 | GTLRGYYNQSEAGSH [p15]
